# Reference: the supplement of paper PMC7125110
# ± gives the standard error. For some of these results: This sample holds only a part of the variants without activity.
# B1: glmS ribozyme (parent)
# chain: AUAAAAGCGCCAGAACUACAGAAAUGUAGUUGACGAGGAGGAGGUUUAUCGAAUUUUCGGCGGAUGCCUCCAAA
# Tests used:
# Settings in all cases: with glucosamine-6-phosphate
# [1] = variants of: B1; assay: kcat; higher = faster cleavage; RNA array
# Method in brief: (§1)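 On sequenced MiSeq chips, barcoded ribozyme variants were made in situ by E. coli RNA polymerase and followed at 37 °C through a hybridised Cy3 probe. Glucosamine-6-phosphate was flowed in at 40 μM to 10 mM in HEPES/KCl/Mg(OAc)2 buffer. Exponential fits to normalised per-tile medians gave kobs, and weighted Michaelis–Menten fits gave kcat and KM.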
# [2] = variants of: B1; assay: KM; higher = weaker cofactor use; RNA array
# Method in brief: as §1
# [3] = variants of: B1; assay: self-cleavage kobs at 640 uM GlcN6P; higher = faster cleavage; RNA array
# Method in brief: as §1
# [4] = variants of: B1; assay: self-cleavage kobs at 2500 uM GlcN6P; higher = faster cleavage; RNA array
# Method in brief: as §1
# [5] = variants of: B1; assay: self-cleavage kobs at 10000 uM GlcN6P; higher = faster cleavage; RNA array
# Method in brief: as §1
# [6] = variants of: B1; assay: self-cleavage kobs at 40 uM GlcN6P; higher = faster cleavage; RNA array
# Method in brief: as §1
# [7] = variants of: B1; assay: self-cleavage kobs at 160 uM GlcN6P; higher = faster cleavage; RNA array
# Method in brief: as §1
variant,measurement,setting,value
AUAAAAGCGCCAGACCUACAGAAAUGUAGUUGACGAGGAGGAGGUUUAUCGGAUUUUCGGCGGAUGCCUCCAAA [A15C A52G],kcat,[1],0.000755 ± 0.00022 s⁻¹
same,KM,[2],7.75 ± 3.2 mM
same,self-cleavage kobs at 640 uM GlcN6P,[3],6.9e-05 ± 1.1e-05 s⁻¹
same,self-cleavage kobs at 2500 uM GlcN6P,[4],0.000164 ± 2e-05 s⁻¹
same,self-cleavage kobs at 10000 uM GlcN6P,[5],0.000449 ± 5.5e-05 s⁻¹
AUAAAAGCGCCAGACAUACAGAAAUGUAGUUGACGAGGAGGAGGUUUAUCGAAUUUUCGGCGGAUGCCUCCAAA [A15C C16A],kcat,[1],0.00213 ± 0.00077 s⁻¹
same,self-cleavage kobs at 40 uM GlcN6P,[6],5.77e-05 ± 8.7e-06 s⁻¹
same,self-cleavage kobs at 160 uM GlcN6P,[7],0.000139 ± 3e-05 s⁻¹
same,self-cleavage kobs at 640 uM GlcN6P,[3],0.000522 ± 8e-05 s⁻¹
same,self-cleavage kobs at 2500 uM GlcN6P,[4],0.000888 ± 0.00013 s⁻¹
same,self-cleavage kobs at 10000 uM GlcN6P,[5],0.00248 ± 0.00031 s⁻¹
AUAAAAGCGCCAGUACUACAGAAAUGUAGUUGACGAGGAGGAAGUUUAUCGAAUUUUCGGCGGAUGCCUCCAAA [A14U G43A],kcat,[1],4.42e-05 ± 1.9e-05 s⁻¹
AUAAAAGCGCCAGUACUACAGAAAUGUAGUUGACGAGGAUGAGGUUUAUCGAAUUUUCGGCGGAUGCCUCCAAA [A14U G40U],kcat,[1],0.00162 ± 0.0004 s⁻¹
same,KM,[2],4.23 ± 1.5 mM
same,self-cleavage kobs at 40 uM GlcN6P,[6],3.43e-05 ± 1.2e-05 s⁻¹
same,self-cleavage kobs at 160 uM GlcN6P,[7],6.75e-05 ± 1.2e-05 s⁻¹
same,self-cleavage kobs at 640 uM GlcN6P,[3],0.000205 ± 3e-05 s⁻¹
same,self-cleavage kobs at 2500 uM GlcN6P,[4],0.000535 ± 7.1e-05 s⁻¹
same,self-cleavage kobs at 10000 uM GlcN6P,[5],0.00123 ± 0.00015 s⁻¹
AUAAAAGCGCCAGUACUACAGAAAUGUACUUGACGAGGAGGAGGUGUAUCGAAUUUUCGGCGGAUGCCUACAAA [A14U G29C U46G C70A],kcat,[1],2.85e-05 ± 1.1e-05 s⁻¹
AUAAAAGCGCCAGACCUACAGAAAUGUAGUUGACGAGGAGGAGGUUUAUCGAAUUUUCGGCGGCUGCCUCCAAA [A15C A64C],kcat,[1],1.33e-05 ± 4.6e-06 s⁻¹
AUAAAAGCGCCAGUACUACAGAAAUGUAGCUGACGAGGAGGAGGUUUAUCGAAUUUUCGGCGGAUGCCUCCAAA [A14U U30C],kcat,[1],2.9e-05 ± 1.4e-05 s⁻¹
same,self-cleavage kobs at 160 uM GlcN6P,[7],< 1e-05 s⁻¹
same,self-cleavage kobs at 2500 uM GlcN6P,[4],4.54e-05 ± 1.8e-05 s⁻¹
AUAAAAGCGCCAGUACUACAGAAAUGUAGUUGACGAGGAGGAGGUUUAGCGAAUUUUCGGCGGAUGCCUCCAAA [A14U U49G],kcat,[1],0.000127 ± 2.5e-06 s⁻¹
same,KM,[2],3.13 ± 0.2 mM
same,self-cleavage kobs at 640 uM GlcN6P,[3],2.09e-05 ± 1e-05 s⁻¹
same,self-cleavage kobs at 2500 uM GlcN6P,[4],5.86e-05 ± 2.3e-05 s⁻¹
same,self-cleavage kobs at 10000 uM GlcN6P,[5],9.65e-05 ± 9.5e-06 s⁻¹
AUAAAAGCGCCAGUACUACAGAAAUGUAGUUCACGAGGAGGAGGUUUAUCGAAUUUUCGGCGGAUGCCUCAAAA [A14U G32C C71A],kcat,[1],3.18e-05 ± 4.6e-06 s⁻¹
same,self-cleavage kobs at 40 uM GlcN6P,[6],< 1e-05 s⁻¹
same,self-cleavage kobs at 10000 uM GlcN6P,[5],3.33e-05 ± 1.2e-05 s⁻¹
AUAAAAGCGCCAGUACUACAGAAAUGUAGUUGACGAGGAGAAGGUUUAUCGAAUUUUCGGCGGAUGCCUCCAAA [A14U G41A],kcat,[1],0.000406 ± 0.00011 s⁻¹
same,self-cleavage kobs at 640 uM GlcN6P,[3],9.05e-05 ± 2e-05 s⁻¹
same,self-cleavage kobs at 2500 uM GlcN6P,[4],0.000422 ± 8.6e-05 s⁻¹
same,self-cleavage kobs at 10000 uM GlcN6P,[5],0.000317 ± 5e-05 s⁻¹
AUAAAAGCGCCAGUACUACAGAAAUGUAGUUGACGAGGAGCAGGUUUAUCGAAUUUUCGGCGGAUGCCUCCAAA [A14U G41C],kcat,[1],8.09e-05 ± 1.1e-06 s⁻¹
same,KM,[2],2.29 ± 0.095 mM
same,self-cleavage kobs at 2500 uM GlcN6P,[4],4.2e-05 ± 1.3e-05 s⁻¹
same,self-cleavage kobs at 10000 uM GlcN6P,[5],6.58e-05 ± 1.4e-05 s⁻¹
AUAAAAGCGCCAGUACUACAGAAAUGUAGUGGACGAGGAGGAGGUUUAUCGAAUUUUCGGCGGAUGCCUCCAAA [A14U U31G],kcat,[1],0.00512 ± 0.0017 s⁻¹
same,KM,[2],2.23 ± 1.1 mM
same,self-cleavage kobs at 40 uM GlcN6P,[6],0.000142 ± 2.1e-05 s⁻¹
same,self-cleavage kobs at 160 uM GlcN6P,[7],0.000241 ± 5.5e-05 s⁻¹
same,self-cleavage kobs at 640 uM GlcN6P,[3],0.00115 ± 0.0003 s⁻¹
same,self-cleavage kobs at 2500 uM GlcN6P,[4],0.00273 ± 0.0005 s⁻¹
same,self-cleavage kobs at 10000 uM GlcN6P,[5],0.00424 ± 0.0007 s⁻¹
AUAAAAGCGCCAGUACUACAGAAAUGUAGUUGACGAAGAGGAGGUUUAUCGAAUUUUCGGCGGAUGCCUCCAAA [A14U G37A],kcat,[1],0.000902 ± 0.00022 s⁻¹
same,KM,[2],3.59 ± 1.4 mM
same,self-cleavage kobs at 160 uM GlcN6P,[7],6.22e-05 ± 1.3e-05 s⁻¹
same,self-cleavage kobs at 640 uM GlcN6P,[3],0.00012 ± 1.5e-05 s⁻¹
same,self-cleavage kobs at 2500 uM GlcN6P,[4],0.00043 ± 5.9e-05 s⁻¹
same,self-cleavage kobs at 10000 uM GlcN6P,[5],0.000648 ± 7.7e-05 s⁻¹
AUAAAAGCGCCAGUACUACAGAAAUGUAGUGGACGAGGAGGAGGUUUAUCGAAUUUUCGGCGGGUGCCUCCAAA [A14U U31G A64G],kcat,[1],0.00476 ± 0.0018 s⁻¹
same,self-cleavage kobs at 40 uM GlcN6P,[6],6.69e-05 ± 1.5e-05 s⁻¹
same,self-cleavage kobs at 640 uM GlcN6P,[3],0.000996 ± 0.00037 s⁻¹
same,self-cleavage kobs at 2500 uM GlcN6P,[4],0.00162 ± 0.00048 s⁻¹
same,self-cleavage kobs at 10000 uM GlcN6P,[5],0.00468 ± 0.0012 s⁻¹
AUAAAAGCGCCAGUACUACAGAAAUGUAGUUGACGAGGAGGAGGGUUAUCGAAUUUUCGGCGGAUGCCUCCAAA [A14U U45G],kcat,[1],0.00111 ± 0.00014 s⁻¹
same,KM,[2],1.85 ± 0.4 mM
same,self-cleavage kobs at 160 uM GlcN6P,[7],8.17e-05 ± 2.1e-05 s⁻¹
same,self-cleavage kobs at 640 uM GlcN6P,[3],0.00033 ± 5.4e-05 s⁻¹
same,self-cleavage kobs at 2500 uM GlcN6P,[4],0.000633 ± 0.00013 s⁻¹
same,self-cleavage kobs at 10000 uM GlcN6P,[5],0.000917 ± 0.00013 s⁻¹
AUAAAAGCGCCAGUACUACAGAAAUGUAGUUGACGAGGAGGAGGCUUAUCGAAUUUUCGGCGGAUGCCUCCAAA [A14U U45C],kcat,[1],0.000739 ± 0.00014 s⁻¹
same,KM,[2],3.32 ± 1.2 mM
same,self-cleavage kobs at 640 uM GlcN6P,[3],0.000105 ± 1.9e-05 s⁻¹
same,self-cleavage kobs at 2500 uM GlcN6P,[4],0.000436 ± 6.7e-05 s⁻¹
same,self-cleavage kobs at 10000 uM GlcN6P,[5],0.000531 ± 6e-05 s⁻¹
AUAAAAGCGCCAGACCUACAGAAAUGUAGUUGACGAGGAGGAGGUUUAUCGAUUUUUCGGCGGAUGCCUCCAAA [A15C A53U],kcat,[1],0.00401 ± 0.00066 s⁻¹
same,KM,[2],1.69 ± 0.4 mM
same,self-cleavage kobs at 40 uM GlcN6P,[6],9.37e-05 ± 1.2e-05 s⁻¹
same,self-cleavage kobs at 160 uM GlcN6P,[7],0.000395 ± 9e-05 s⁻¹
same,self-cleavage kobs at 640 uM GlcN6P,[3],0.00119 ± 0.00025 s⁻¹
same,self-cleavage kobs at 2500 uM GlcN6P,[4],0.00184 ± 0.00036 s⁻¹
same,self-cleavage kobs at 10000 uM GlcN6P,[5],0.00391 ± 0.00049 s⁻¹
AUAAAAGCGCCAGACCUACAGAAAUGUAGUUGACGAGGAGGUGGUUUAUCGAAUUUUCGGCGGAUGCCUCCAAA [A15C A42U],kcat,[1],1.58e-05 ± 3.7e-06 s⁻¹
same,self-cleavage kobs at 40 uM GlcN6P,[6],< 1e-05 s⁻¹
same,self-cleavage kobs at 160 uM GlcN6P,[7],< 1e-05 s⁻¹
